Measured values as given in patent publication US10829560B2, “Agents binding specifically to human cadherin-17, human cadherin-5, human cadherin-6 and human cadherin-20 RGD motif” (CONSEJO SUPERIOR DE INVESTIGACIONES CIENTÍFICAS, priority 2015, dated 2020).

Legend:
β1 integrin = biological target: T1, β1 integrin (Homo sapiens, UniProt P05556+P17301); assay: β1 integrin activation by CDH17 proteins or cadherin RGD peptides (HUTS21 flow cytometry); format: cell-based; settings: for induction of β1 integrin activation: RKO cells, 1 μg/mL peptide, FIG. 17; for conformational change of β1-integrin into a high affinity conformation: 9 aa peptides, MDA-MB-468, BLM and RKO cells, FIG. 16; for β1 integrin in high-affinity conformation: RKO and KM12SM cells, FIG. 5B, 5C
T1 construct: endogenous in cells; host or cells: RKO (A4); RKO, KM12SM, MDA-MB-468 and BLM (A9)
T1 sequence (P05556 21-798): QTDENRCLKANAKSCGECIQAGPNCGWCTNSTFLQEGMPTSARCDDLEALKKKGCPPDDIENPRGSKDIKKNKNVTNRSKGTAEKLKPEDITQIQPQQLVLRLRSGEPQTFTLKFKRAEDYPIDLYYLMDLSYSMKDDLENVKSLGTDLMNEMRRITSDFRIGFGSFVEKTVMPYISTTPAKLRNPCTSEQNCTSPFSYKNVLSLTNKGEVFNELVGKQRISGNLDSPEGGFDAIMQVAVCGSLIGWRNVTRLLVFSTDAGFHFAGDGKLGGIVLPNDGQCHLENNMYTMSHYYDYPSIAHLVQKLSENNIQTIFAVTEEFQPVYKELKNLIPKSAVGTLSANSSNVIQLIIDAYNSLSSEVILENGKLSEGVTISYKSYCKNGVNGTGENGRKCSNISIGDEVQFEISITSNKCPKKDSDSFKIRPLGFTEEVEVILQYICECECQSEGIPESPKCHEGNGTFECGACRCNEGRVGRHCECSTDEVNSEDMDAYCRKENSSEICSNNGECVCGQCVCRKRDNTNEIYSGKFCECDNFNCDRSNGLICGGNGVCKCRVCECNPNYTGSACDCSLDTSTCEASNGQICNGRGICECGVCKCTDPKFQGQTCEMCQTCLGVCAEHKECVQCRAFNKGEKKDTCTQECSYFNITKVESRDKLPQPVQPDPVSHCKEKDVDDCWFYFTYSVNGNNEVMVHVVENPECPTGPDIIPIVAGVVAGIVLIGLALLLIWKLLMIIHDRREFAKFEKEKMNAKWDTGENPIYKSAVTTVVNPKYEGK
T1 sequence (P17301 30-1181): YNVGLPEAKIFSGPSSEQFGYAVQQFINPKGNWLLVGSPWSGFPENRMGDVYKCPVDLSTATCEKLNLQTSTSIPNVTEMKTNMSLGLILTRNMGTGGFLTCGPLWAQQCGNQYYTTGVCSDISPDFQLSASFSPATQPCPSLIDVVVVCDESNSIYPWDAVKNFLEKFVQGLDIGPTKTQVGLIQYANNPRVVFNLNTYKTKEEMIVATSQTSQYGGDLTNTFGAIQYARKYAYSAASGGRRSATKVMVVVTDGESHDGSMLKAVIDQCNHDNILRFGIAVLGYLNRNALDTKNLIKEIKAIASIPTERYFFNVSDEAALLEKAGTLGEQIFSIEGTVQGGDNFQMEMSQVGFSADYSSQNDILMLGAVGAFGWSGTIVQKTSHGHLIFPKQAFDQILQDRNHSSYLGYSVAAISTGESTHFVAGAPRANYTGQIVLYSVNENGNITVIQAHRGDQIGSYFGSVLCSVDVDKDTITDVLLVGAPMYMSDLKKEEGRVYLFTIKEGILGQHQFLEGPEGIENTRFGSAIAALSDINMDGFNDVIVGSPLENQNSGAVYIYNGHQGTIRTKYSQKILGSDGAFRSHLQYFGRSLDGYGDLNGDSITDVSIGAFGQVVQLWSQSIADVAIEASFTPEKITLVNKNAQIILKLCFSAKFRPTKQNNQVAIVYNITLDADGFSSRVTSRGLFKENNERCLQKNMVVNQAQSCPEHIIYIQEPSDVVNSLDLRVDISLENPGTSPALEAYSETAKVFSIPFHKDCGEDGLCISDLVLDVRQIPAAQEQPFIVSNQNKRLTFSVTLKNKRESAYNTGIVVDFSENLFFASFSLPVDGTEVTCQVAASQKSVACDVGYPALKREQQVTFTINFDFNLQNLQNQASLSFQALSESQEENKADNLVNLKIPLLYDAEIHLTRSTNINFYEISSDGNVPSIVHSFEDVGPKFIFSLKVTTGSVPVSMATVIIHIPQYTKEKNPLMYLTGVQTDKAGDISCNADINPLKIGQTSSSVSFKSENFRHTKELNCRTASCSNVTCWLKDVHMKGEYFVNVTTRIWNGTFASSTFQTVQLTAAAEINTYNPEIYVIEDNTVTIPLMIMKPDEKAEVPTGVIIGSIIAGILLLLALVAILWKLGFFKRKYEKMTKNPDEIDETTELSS
Method: Cells were detached with 2 mM EDTA in PBS, incubated at 4° C. with primary antibodies (10 μg/ml) for 30 min, washed and incubated with Alexa 488 labelled-secondary antibodies (anti-mouse IgG or anti-rabbit IgG, Dako). Fluorescence was analysed in a Coulter Epics XL cytofluorometer. Mean fluorescence intensities for the indicated antibodies are shown inside each panel. As a reference, irrelevant control antibodies (anti-cadherin-11, Santa Cruz Biotechnologies) gave a mean fluorescence intensity of 0.3.
RKO cells were detached with 2 mm EDTA in PBS, washed with PBS, resuspended in DMEM and incubated with a 9-amino acid peptide containing the RGD motif and the flanking sequences from cadherin 5 (SEQ ID NO: 37 for the RGD motif of domain 2 (CDH5A), and SEQ ID NO: 19 for the RGD motif of domain 3 (CDH5B)), cadherin 6 (SEQ ID NO: 38), cadherin 17 (VSLRGDTRG) (SEQ ID NO: 1), cadherin 20 (SEQ ID NO: 39), and cadherin 16 (SEQ ID NO: 31, RAIRGDTEG) for 25 min at 37° C. in presence of immune sera or control serum (diluted 1:50). After incubation, cells were subjected to flow cytometry assays using anti-β1 integrin in high-affinity conformation antibodies (Huts21, BD Pharmingen) and Alexa 488-coupled anti-mouse IgG antibodies (Abcam). Fluorescence was analysed in a Coulter Epics XL cytofluorometer. Mean fluorescence intensities for the indicated antibodies are shown inside each panel. As a reference, irrelevant control antibodies gave a mean fluorescence intensity of 0.3.
Alternatively, RKO cells were starved for 4 h, detached with EDTA 2 mM in PBS, and incubated in serum-free DMEM with 1 μg/mL of the following peptides: 9 aa peptides including the RGD motifs and the flanking sequences corresponding to the cadherin 17 (SEQ ID NO: 1) and the two motifs present in cadherin-5 (SEQ ID NO: 37 for the RGD motif of domain 2 (CDH5A), and SEQ ID: 19 for the RGD motif of domain 3 (CDH5B)), and 7 aa or 5 aa peptides with 2 aa or 1 aa respectively in each side of the RGD motif corresponding to the sequence of CDH17, SLRGDTR (SEQ ID NO: 32), and LRGDT (SEQ ID NO: 14), respectively. Simultaneously the cells were incubated to the indicated anti-CDH17 RGD monoclonal antibodies (10 μg/mL). After 40 min, cells were washed and subjected to flow cytometry assays using HUTS21 antibody, which binds to β1-integrin in high affinity conformation. Data were collected in a FACScalibur™ cytometer (BD) and represented as % of the β1-integrin activation induced by the 9 aa CDH17 RGD peptide (SEQ ID NO: 1).

RKO and KM12SM cells [1] = assay: Cell adhesion to plates coated with CDH17 domain 6; format: cell-based, human; settings: for inhibition of cell adhesion to CDH17 domain 6 wt: FIG. 4B; for optimal dose for promoting cell adhesion to coated plates: FIG. 4A
Method: (§1) For soluble binding assays, cells were detached, incubated for 40 min with CDH17 ectodomain (10 μg/mL) at 37° C. in Ca2+, Mg2+ and Mn2+-free HBSS medium (Life Technologies), washed, incubated with anti-CDH17 antibodies at 4° C., washed again, incubated with secondary antibodies and analyzed by flow cytometry. For cell adhesions to CDH17 Domain 6 (2-10 μg/mL), adhesion assays in 96 wells microtiter plates were performed as above but in medium containing 1 mM MnCl2 and cells were washed gently, using a multi-channel pipette. For blocking assays, cells were preincubated with anti-β1 integrin (5 μg/mL) for 10 min before adhesion.

RKO and KM12SM cells [2] = assay: Cell adhesion to Matrigel after incubation with CDH17 DOM6 or Ecd; format: cell-based, human; settings: FIG. 5D
Method: For cell adhesion, 96-well plates were coated with Matrigel (4 μL/mL) (BD Biosciences) or type IV collagen ([…]) (Sigma-Aldrich) in coating buffer (0.1 M NaHCO3 pH 8.8) for 20 h and incubated with adhesion medium (0.4% BSA in serum-free DMEM) for 2 h to block unspecific binding. Cell were starved for 5 h without serum, labeled with BCECF-AM (Invitrogen), detached with 2 mM EDTA in PBS, resuspended in serum-free DMEM and 7×10^4 cells in 100 μL were added to plates in triplicate and then incubated for 25 min. Non-adherent cells were removed by three washes with DMEM. Bound cells were quantified using a fluorescence analyzer (POLARstar Galaxy).

RKO and KM12SM cells [3] = assay: Soluble binding assay using CDH17 ectodomain as ligand (flow cytometry); format: cell-based, human; settings: 10 μg/mL, FIG. 3E
Method: as §1

SLRGDTR (listed as Homo sapiens)
induction of β1 integrin activation (β1 integrin): able to induce efficiently the integrin activation

DQDRGDGSL (listed as Homo sapiens) [SEQ ID NO: 38]
conformational change of β1-integrin into a high affinity conformation (β1 integrin): induced the conformational change of β1-integrin into a high affinity conformation

VSLRGDTRG (listed as Homo sapiens) [CDH17 peptide]
conformational change of β1-integrin into a high affinity conformation (β1 integrin): induced the conformational change of β1-integrin into a high affinity conformation
β1 integrin in high-affinity conformation (β1 integrin): increased high-affinity conformation β1 integrin in both cell lines

QGLRGDSGT (listed as Homo sapiens) [CDH5A]
conformational change of β1-integrin into a high affinity conformation (β1 integrin): induced the conformational change of β1-integrin into a high affinity conformation
induction of β1 integrin activation (β1 integrin): able to activate beta1 integrin

RGDS [RGDS peptide]
concentration at which competition of cell adhesion to CDH17 domain 6 wt started (RKO and KM12SM cells [1]; both cell lines, 1 mM MnCl2, FIG. 4B): 1 µM
inhibition of cell adhesion to CDH17 domain 6 wt (RKO and KM12SM cells [1]; both cell lines): clear dose-dependent effect

RAIRRGDTEG (listed as Homo sapiens) [CDH16 RGD, reference compound]
β1 integrin in high-affinity conformation (β1 integrin): had no effect on β1 integrin activation

RAIRGDTEG (listed as Homo sapiens) [SEQ ID NO: 31, reference compound]
conformational change of β1-integrin into a high affinity conformation (β1 integrin): not

CDH17 ectodomain: purified recombinant CDH17 ectodomain (wild type) expressed in baculovirus
β1 integrin in high-affinity conformation (β1 integrin): enhanced the amount of β1 integrin in high-affinity conformation
cell adhesion to Matrigel after incubation (RKO and KM12SM cells [2]): significant increase in cell adhesion to Matrigel
binding to the cell surface (RKO and KM12SM cells [3]): bound to the cell surface

LRGDT (listed as Homo sapiens)
induction of β1 integrin activation (β1 integrin): able to induce efficiently the integrin activation

DMDRGDGSI (listed as Homo sapiens) [SEQ ID NO: 39]
conformational change of β1-integrin into a high affinity conformation (β1 integrin): induced the conformational change of β1-integrin into a high affinity conformation

Ecd RAD: recombinant CDH17 ectodomain mutant lacking RGD motif (RAD)
cell adhesion to Matrigel after incubation (RKO and KM12SM cells [2]): significantly enhanced
binding to the cell surface (RKO and KM12SM cells [3]): unable to bind to cells

RADS [RADS peptide]
inhibition of cell adhesion to CDH17 domain 6 wt (RKO and KM12SM cells [1]; both cell lines): did not inhibit cell adhesion

SILRGDYQD (listed as Homo sapiens) [CDH5 RGD peptide]
conformational change of β1-integrin into a high affinity conformation (β1 integrin): induced the conformational change of β1-integrin into a high affinity conformation
induction of β1 integrin activation (β1 integrin): able to activate beta1 integrin

B1: domain 6 wt: recombinant CDH17 domain 6 (571-665) expressed in E. coli (protein)
chain: FQAKVSEDVAIGTKVGNVTAKDPEGLDISYSLRGDTRGWLKIDHVTGEIFSVAPLDREAGSPYRVQVVATEVGGSSLSSVSEFHLILMDVNDNPP
β1 integrin in high-affinity conformation (β1 integrin): enhanced the amount of β1 integrin in high-affinity conformation
cell adhesion to Matrigel after incubation (RKO and KM12SM cells [2]): significant increase in cell adhesion to Matrigel
cell adhesion to Matrigel after incubation (RKO and KM12SM cells [2]; listed as CDH17 DOM6 wt): significantly enhanced
optimal dose for promoting cell adhesion to coated plates (RKO and KM12SM cells [1]; KM12SM): 10 µg/mL
optimal dose for promoting cell adhesion to coated plates (RKO and KM12SM cells [1]; RKO): 2 µg/mL
